Experimental data reported in PMC3283256 (The Journal of Biological Chemistry, 2010).

B1: GST-Gas7WW2 (domain or fragment, mouse, UniProt Q60780 1-151, looked up)
chain: MATALQKPGMVPPPPGEESQTVILPPGWHSYLSPQGRRYYVNTTTNETTWERPSSSPGISASPAPHRSSLPTTVNGYHASGTPAHPPETAHMSLRKSTGDSQNLGSSSPGRKQSKENTITINCVTFPHPDTMPEQQLLKPTEWSYCDYFWA
B2: GST-Gas7 (natural protein, mouse, UniProt Q60780 1-421, looked up)
chain: MATALQKPGMVPPPPGEESQTVILPPGWHSYLSPQGRRYYVNTTTNETTWERPSSSPGISASPAPHRSSLPTTVNGYHASGTPAHPPETAHMSLRKSTGDSQNLGSSSPGRKQSKENTITINCVTFPHPDTMPEQQLLKPTEWSYCDYFWADKKDPQGNGTVAGFELLLQKQLKGKQMQKEMSEFIRERIKIEEEYAKNLAKLSQNSLAAQEEGSLGEAWAQVKKSLADEAEVHLKFSAKLHSEVEKPLMNFRENFKKDMKKCDHHIADLRKQLASRYASVEKARKALTERQKDLEMKTQQLEIKLSNKTEEDIKKARRKSTQAGDDLMRCVDLYNQAQSKWFEEMVTTTLELERLEVERVEMIRQHLCQYTQLRHETDMFNQSTVEPVDQLLRKVDPAKDRELWVREHKTGNIRPVDMEI

Molecular target: His-tagged N-WASP (rat, UniProt O08816 1-501)
Assay: pull-down

Sequence of His-tagged N-WASP (O08816 whole entry): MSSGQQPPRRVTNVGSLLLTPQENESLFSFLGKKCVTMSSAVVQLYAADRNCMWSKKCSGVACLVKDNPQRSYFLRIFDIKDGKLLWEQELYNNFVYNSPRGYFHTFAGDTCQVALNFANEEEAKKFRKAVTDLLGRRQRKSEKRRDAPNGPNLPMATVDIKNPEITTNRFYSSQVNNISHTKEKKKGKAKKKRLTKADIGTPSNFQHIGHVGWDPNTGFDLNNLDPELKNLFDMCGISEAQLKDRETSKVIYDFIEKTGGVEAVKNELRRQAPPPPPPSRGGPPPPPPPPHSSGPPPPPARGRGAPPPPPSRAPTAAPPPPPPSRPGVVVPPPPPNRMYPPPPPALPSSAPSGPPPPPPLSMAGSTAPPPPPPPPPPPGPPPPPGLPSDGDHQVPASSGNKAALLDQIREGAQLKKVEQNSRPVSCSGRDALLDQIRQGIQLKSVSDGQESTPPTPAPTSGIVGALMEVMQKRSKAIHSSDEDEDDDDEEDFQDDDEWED

| Binder | binding result |
| --- | --- |
| B1 | binds |
| B2 | binds |
